Data as given in patent publication US20080213270.

System: Neurotensin (1-13)

neurolysin (NLN), mouse mast cell-associated
NT degradation by A23187-activated BMCMCs transduced with shRNA (percentage of NT remaining): mMC-CPA- or NL-shRNA-transduced BMCMCs also exhibited significantly reduced ability to degrade NT after activation with A23187 (5 uM)
NT degradation by membrane or cytosol preparations of mouse BMCMCs (percentage of NT remaining): either membrane or cytosol preparations of mouse BMCMCs degraded NT, an ability that was almost completely inhibited by the NLN inhibitor, Pro-Ile (10 mM)
